# Where a chain is given by its changes, count along the chain named. Numbers in names are those of the source.
# B1: AgApiT (UGT94AX1) (Apium graveolens) (protein)
# chain: MGSENAKTRILMFPYLAYGHISPFVELAKQLTKRNFHIYLCSTPINLASVKKRADEDDNIQLLEFHLPSSPELPPRYHCSTGLPAELNPVLLRVFENAGPVFVDILKDIKPDLVIYDFMPSWPAQVALSLNIQVVYFSIFPVPMCCLPLHDSKRAGEKFPYQNVVIPQSPNRFALMASRNLLNCFEKTCKFALVKGLREVEGKYIDLLSDLADKDIIAVGPLVHVSMEKEDDKTKSILKWLDSKEKSSVVFVCFGSESYLSAEETIEMANALETTKCNFIWAMKFPQEKKDSVQLPDGFVERVGELGMILDGWVPQTMILGHPSTGVFLSHCGWSSVNESMKFGVPIIGMPMRYDLALIAKLVVEIGVGMEIVKNNQGKFDREGIVNVLRKVLEDGSEVKAKATELSLKINEKGEEDLDKAAEELMQICRNKKEIQG
# notes: full ORF, codon-optimized synthetic gene, pCold ProS2, E. coli BL21(DE3); His/ProS2 tag cut off with HRV3C protease; 49 kDa
# B2: AgApiT (UGT94AX1) (Apium graveolens; I139V) (protein)
# chain: B1 chain with I139V
# notes: as for B1
# B3: AgApiT (UGT94AX1) (Apium graveolens; L356Q) (protein)
# chain: B1 chain with L356Q
# notes: as for B1
# Substrate: O=c1cc(-c2ccc(O)cc2)oc2cc(O[C@@H]3O[C@H](CO)[C@@H](O)[C@H](O)[C@H]3O)cc(O)c12
# Test: reversed-phase HPLC glycosyltransferase assay, Michaelis-Menten nonlinear fit
# Assay type: biochemical, Apium graveolens
# Conditions: donor UDP-Api, 200 mM Tris-HCl, 50 mM NaCl, pH 7.0, 23 °C
# Source text: (§1) reversed-phase HPLC glycosyltransferase assay, Michaelis-Menten nonlinear fit on AgApiT (UGT94AX1)
Protein,Km,kcat,kcat/Km
B1,15 ± 3 µM,0.00088 ± 5e-05 s⁻¹,58 ± 15 M⁻¹ s⁻¹
B2,17 ± 1 µM,0.00083 ± 7e-05 s⁻¹,50 ± 18 M⁻¹ s⁻¹
B3,52 ± 9 µM,0.00021 ± 2e-05 s⁻¹,2.1 ± 0.3 M⁻¹ s⁻¹

# Substrate: O=c1ccn([C@@H]2O[C@H](COP(=O)(O)OP(=O)(O)O[C@H]3OC[C@](O)(CO)[C@H]3O)[C@@H](O)[C@H]2O)c(=O)[nH]1
# Test: as above
# Assay type: biochemical, Apium graveolens
# Conditions: acceptor apigenin 7-O-glucoside, 200 mM Tris-HCl, 50 mM NaCl, pH 7.0, 23 °C
# Source text: as §1
Protein,Km,kcat,kcat/Km
B1,8.6 ± 0.6 µM,0.00065 ± 1e-05 s⁻¹,76 ± 6 M⁻¹ s⁻¹
B2,17 ± 1 µM,0.00047 ± 1e-05 s⁻¹,28 ± 3 M⁻¹ s⁻¹
B3,390 ± 60 µM,0.00014 ± 1e-05 s⁻¹,0.36 ± 0.08 M⁻¹ s⁻¹

# — paper PMC10602602, “The apiosyltransferase celery UGT94AX1 catalyzes the biosynthesis of the flavone glycoside apiin” (Plant Physiology, 2023)
